The target in test [1] is T1, human FcγRIIA(R131) expressed on CHO cells (human, UniProt P12318 34-317).
T1 construct: whole, on cells
T1 sequence (looked up): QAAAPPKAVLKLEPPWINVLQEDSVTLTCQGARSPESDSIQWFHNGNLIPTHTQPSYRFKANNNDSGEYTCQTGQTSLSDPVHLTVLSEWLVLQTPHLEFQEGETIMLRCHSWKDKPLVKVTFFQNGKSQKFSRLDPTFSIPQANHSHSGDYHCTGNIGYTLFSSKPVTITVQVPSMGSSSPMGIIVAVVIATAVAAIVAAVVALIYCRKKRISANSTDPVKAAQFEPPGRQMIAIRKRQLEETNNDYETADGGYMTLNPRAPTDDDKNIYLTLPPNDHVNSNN
The experiment in a line: FACS, CHO cells expressing FcγRIIA(R131). The protocol: (§1) For FACS analysis of the IgG mutants' binding to different FcγRs, FcγR overexpressing CHO cells were harvested using trypsin-EDTA and were suspended in cold staining buffer (3% BSA in PBS). Test IgG mutants, which were diluted in staining buffer, were added into the cells. The mixture was incubated 4° C. for 2 hours, and then washed twice with cold staining buffer and re-suspended in PE-labeled anti-human IgG followed by incubation at 4° C. for 2 hours. The mixture was washed twice with staining buffer and re-suspended in 2% PFA in PBS for FACS.
For orientation: In flow cytometry, cells or beads pass a laser one at a time.

Test [2] has as its target T2, human FcγRIIA(H131) expressed on CHO cells (human, UniProt P12318 34-317).
T2 construct: whole, on cells
T2 sequence (looked up): T1 sequence (looked up) with R134H
In words: FACS, CHO cells expressing FcγRIIA(H131). The protocol: as §1

In test [3] the target is T3, human FcRIIIA-F158 protein (MednaBio, E1036) (human, UniProt P08637 17-208).
T3 construct: Bought; also called FcγRIIIA(F)
In words: BLI. In outline:
(§2)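 Binding was measured by biolayer interferometry on an Octet Red96 System, with commercial human Fc receptor proteins loaded at 20 μg/mL onto anti-penta-HIS biosensors. Sensors were dipped into an 8-point 1:3 dilution series of test IgG starting at 300 nM in PBS with 0.1% BSA and 0.02% Tween-20. Fcγ receptor assays ran at pH 7.2 and FcRn assays at pH 6. Kd, kon and koff came from global fitting to a 1:1 binding model.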
In general terms: Biolayer interferometry detects binding as a change in optical thickness at a sensor tip.

Test [4] concerns the target T4, human FcRn protein (MednaBio, E1032) (human, UniProt P55899 24-297; P61769 21-119).
T4 construct: Bought; assays at pH 6
In words: BLI. In outline:
as §2

In test [5] the target is T5, human FcRIIB/C protein (MednaBio, E1034) (human, UniProt P31994 43-217, limits assumed).
T5 construct: Bought as FcRIIB/C; also called FcγRIIB; CD32B
T5 sequence (looked up): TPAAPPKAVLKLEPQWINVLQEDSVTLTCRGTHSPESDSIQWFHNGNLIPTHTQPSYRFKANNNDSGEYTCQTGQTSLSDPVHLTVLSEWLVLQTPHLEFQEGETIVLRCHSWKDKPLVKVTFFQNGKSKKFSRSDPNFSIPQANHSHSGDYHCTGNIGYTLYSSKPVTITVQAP
In words: BLI. In outline: as §2

In test [6] the target is T6, human FcRIIIA-V158 protein (MednaBio, E1035) (human, UniProt P08637 17-208).
T6 construct: Bought; also called FcγRIIIA(V); FcgRIIIA(V)
In words: BLI. The method, boiled down:
as §2

For test [7], the target named is T7, human FcRI protein (MednaBio, E1031) (human, UniProt P12314 16-288, limits assumed).
T7 construct: Bought; loaded on anti-penta-HIS biosensors; also called FcγRI
The experiment in a line: BLI. In outline: as §2

In test [8] the target is T8, human FcRIIIB protein (MednaBio, E1037) (human, UniProt O75015 17-200).
T8 construct: Bought; also called FcγRIIIB; FcgRIIIB
In words: BLI. In outline:
as §2

The target of test [9] is T9, human FcRIIA protein (MednaBio, E1033) (human, UniProt P12318 34-218, limits assumed).
T9 construct: Bought; also called FcγRIIA
T9 sequence (looked up): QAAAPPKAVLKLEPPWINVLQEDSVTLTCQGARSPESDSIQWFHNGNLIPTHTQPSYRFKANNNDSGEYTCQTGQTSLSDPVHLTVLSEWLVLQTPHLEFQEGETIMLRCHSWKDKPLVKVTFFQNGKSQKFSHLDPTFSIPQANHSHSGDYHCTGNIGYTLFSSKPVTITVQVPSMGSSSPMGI
The experiment in a line: BLI. In outline:
as §2

The target in test [10] is T10, human FcγRIIC expressed on CHO cells (human, UniProt P31995 43-323).
T10 construct: whole, on cells
T10 sequence (looked up): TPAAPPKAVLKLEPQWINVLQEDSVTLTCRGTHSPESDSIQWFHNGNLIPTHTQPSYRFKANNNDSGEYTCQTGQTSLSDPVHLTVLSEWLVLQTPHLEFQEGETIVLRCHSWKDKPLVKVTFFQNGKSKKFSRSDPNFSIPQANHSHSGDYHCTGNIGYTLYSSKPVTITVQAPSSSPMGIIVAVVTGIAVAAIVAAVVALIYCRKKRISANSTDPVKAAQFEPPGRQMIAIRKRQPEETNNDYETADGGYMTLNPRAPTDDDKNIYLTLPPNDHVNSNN
The experiment in a line: FACS, CHO cells expressing FcγRIIC.

Where a chain is given by its changes, count along the chain named.

From patent US20200392227A1 (LYVGEN BIOPHARMA, published 2020) come the findings set out here.

T7 sequence (P12314 16-288 limits assumed): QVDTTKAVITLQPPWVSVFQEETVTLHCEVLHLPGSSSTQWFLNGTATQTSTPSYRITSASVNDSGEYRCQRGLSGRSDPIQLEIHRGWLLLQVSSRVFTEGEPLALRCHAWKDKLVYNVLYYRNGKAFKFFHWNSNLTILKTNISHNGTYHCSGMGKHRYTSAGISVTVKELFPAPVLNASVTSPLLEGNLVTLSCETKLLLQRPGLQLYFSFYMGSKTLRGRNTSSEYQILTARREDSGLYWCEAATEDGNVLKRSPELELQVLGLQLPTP
T4 sequence (P55899 24-297 limits assumed, form in doubt, chain 1 of 2): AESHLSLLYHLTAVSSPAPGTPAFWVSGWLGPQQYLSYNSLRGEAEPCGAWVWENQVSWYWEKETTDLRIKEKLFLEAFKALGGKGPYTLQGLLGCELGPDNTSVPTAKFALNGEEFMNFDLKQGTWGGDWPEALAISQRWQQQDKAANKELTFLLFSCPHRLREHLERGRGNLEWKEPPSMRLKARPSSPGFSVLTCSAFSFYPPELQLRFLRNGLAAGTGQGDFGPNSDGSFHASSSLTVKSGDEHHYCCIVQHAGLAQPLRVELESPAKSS
T4 sequence (P61769 21-119 limits assumed, form in doubt, chain 2 of 2): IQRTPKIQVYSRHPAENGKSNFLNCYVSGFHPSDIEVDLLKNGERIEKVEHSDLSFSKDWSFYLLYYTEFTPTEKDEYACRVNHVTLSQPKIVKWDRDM
T8 sequence (O75015 17-200 limits assumed): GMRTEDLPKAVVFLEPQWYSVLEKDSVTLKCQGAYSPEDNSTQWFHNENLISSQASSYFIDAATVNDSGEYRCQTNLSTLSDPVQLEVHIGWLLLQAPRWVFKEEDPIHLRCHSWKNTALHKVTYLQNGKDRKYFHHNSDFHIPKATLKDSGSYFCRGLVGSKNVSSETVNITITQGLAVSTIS
T3 sequence (P08637 17-208 limits assumed): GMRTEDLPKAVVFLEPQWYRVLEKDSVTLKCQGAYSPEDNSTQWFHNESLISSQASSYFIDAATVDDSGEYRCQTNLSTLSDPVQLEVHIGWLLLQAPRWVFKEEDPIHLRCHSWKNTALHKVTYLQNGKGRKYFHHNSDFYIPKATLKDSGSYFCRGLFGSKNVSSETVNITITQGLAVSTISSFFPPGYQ
T6 sequence (P08637 17-208 F176V): as the sequence (P08637 17-208 limits assumed) above, with F160V counted along it

B1: anti-CD137 IgG4 with Fc variant G4m9 (antibody)
heavy: EVQLVQSGAEVKKPGESLRISCKGSGYSFSTYWISWVRQMPGKGLEWMGKIYPGDSYTNYSPSFQGQVTISADKSISTAYLQWSSLKASDTAMYYCARGYGIFDYWGQGTLVTVSSASTKGPSVFPLAPCSRSTSESTAALGCLVKDYFPEPVTVSWNSGALTSGVHTFPAVLQSSGLYSLSSVVTVPSSSLGTKTYTCNVDHKPSNTKVDKRVESKYGPPCPPCPAPEFLGGPSVFLFPPKPKDTLMISRTPEVTCVVVDVEQEDPEVQFNWYVDGVEVHNAKTKPREEQFNSTYRVVSVLTVLHQDWLNGKEYKCKVSNKGFPSSIEKTISKAKGQPREPQVYTLPPSQEEMTKNQVSLTCLVKGFYPSDIAVEWESNGQPENNYKTTPPVLDSDGSFFLYSRLTVDKSRWQEGNVFSCSVMHEALHNHYTQKSLSLSLGK
light: SYELTQPPSVSVSPGQTASITCSGDNIGDQYAHWYQQKPGQSPVLVIYQDKNRPSGIPERFSGSNSGNTATLTISGTQAMDEADYYCATYTGFGSLAVFGGGTKLTVLGQPKAAPSVTLFPPSSEELQANKATLVCLISDFYPGAVTVAWKADSSPVKAGVETTTPSKQSNNKYAASSYLSLTPEQWKSHRSYSCQVTHEGSTVEKTVAPTECS
notes: copies: 2 + 2
As a reminder, the Kd is the concentration at which binding is half-saturated. In general, koff refers to a measure of how fast the partners let go of each other. Broadly, the kon is the second-order rate constant of association. A lower kon goes with slower complex formation. As for B1, the binding result was “binds” in test [1]; “no binding (tested: 10 ug/ml)” in test [2]; “no binding (tested: 300 nM)” in [3]; “no binding (tested: 300 nM)” in test [6]; “no binding (tested: 300 nM)” in test [8]; “no binding (tested: 300 nM)” in test [9]. Further, the binding result in [10] was “binds”. Also, the Kd in test [4] was 75 nM; in test [5], 140 nM; in [7], 17 nM. For the same molecule, the koff stood at 0.017 s⁻¹ in test [4], 0.013 s⁻¹ in [5] and 0.0074 s⁻¹ in test [7]. In addition, the figures for the kon in test [4], in test [5] and in [7] were 230000 M⁻¹ s⁻¹, 94000 M⁻¹ s⁻¹ and 440000 M⁻¹ s⁻¹, respectively.
